Consider two molecules from patent US20140086916A1 (Merck Sharp & Dohme, published 2014).

By EC50 (read off the curve) is commonly meant the concentration needed to bring the measured effect to its halfway point. In general, Kd refers to the equilibrium constant for the complex coming apart. Higher therefore signals weaker binding.

The target of test [1] is T1, FcγRI (R&D Systems) (UniProt P12314 16-288).
T1 construct: Bought reagent, coated on the plate at 1 µg/mL; also called Fc gamma receptor I; CD64
T1 sequence (P12314 16-288 limits assumed): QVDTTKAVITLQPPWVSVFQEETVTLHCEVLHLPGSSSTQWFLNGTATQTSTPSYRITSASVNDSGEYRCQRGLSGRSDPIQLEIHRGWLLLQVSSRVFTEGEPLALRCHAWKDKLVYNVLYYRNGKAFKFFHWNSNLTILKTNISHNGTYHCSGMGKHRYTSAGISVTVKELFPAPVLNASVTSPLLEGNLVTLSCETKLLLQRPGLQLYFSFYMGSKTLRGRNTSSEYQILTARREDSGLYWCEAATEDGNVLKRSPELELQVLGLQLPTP
The test can be described thus: ELISA-type plate assay, FcγRI coated, monomeric antibody, detected with AP-conjugated goat anti-human IgG F(ab')2, RFU readout. As to the method:
(§1) Fcγ receptor binding assays were carried out as described (Shields, et al. (2001) J. Biol. Chem. 276:6591-6604) with minor modifications. High protein binding 96-well plates (Corning Costar) were coated with 100 μL per well of Fcγ receptor solutions in PBS at the following concentrations: 1 μg/mL for both FcγRI (R&D Systems) and FcγRIIa (Pichia pastoris produced), 2 μg/mL for FcγRIIb (P. pastoris produced), 0.8 μg/mL for FcγRIIIa-F158, and 0.4 μg/mL for FcγRIIIa-V158 (both P. pastoris produced). All Pichia pastoris produced receptors were expressed and purified as described (Li, et al. (2006) Nature Biotechnology 24:210-215). Monomeric antibody samples added to the FcγRI plate were serially diluted in assay diluent (1×PBS, 1% BSA, and 0.05% Tween20) and 100 μL, per well was added to the plate. Antibody samples prepared for the remaining receptors require a one hour dimerization step with half molar ratio of goat anti-human IgG F(ab′)2 F(ab′)2 that is conjugated with alkaline phosphatase for detection. […] FcγRI bound sample antibody was detected using the same goat anti-human IgG F(ab′)2 alkaline phosphatase conjugated F(ab′)2. Sample antibody binding was quantified by measuring excitation at 340 nm and emission at 465 nm after 18 hour incubation with SuperPhos, 4-MUP Fluorescence AP Substrate Detection System (Virolabs).
In general terms: In an ELISA, binding on a coated surface is turned into a signal by an enzyme label.

The target of test [2] is T2, FcγRIIb (Pichia pastoris produced) (UniProt P31994 43-217, limits assumed).
T2 construct: also called FcgRIIB; CD32B
T2 sequence (looked up): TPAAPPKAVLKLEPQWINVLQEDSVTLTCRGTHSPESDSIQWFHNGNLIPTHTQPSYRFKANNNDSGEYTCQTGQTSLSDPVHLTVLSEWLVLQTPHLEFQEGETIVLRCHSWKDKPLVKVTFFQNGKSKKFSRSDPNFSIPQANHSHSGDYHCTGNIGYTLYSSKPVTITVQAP
The experiment in a line: ELISA-type plate assay, FcγR coated, antibody dimerized with AP-conjugated goat anti-human IgG F(ab')2, RFU readout. As to the method: (§2) Fcγ receptor binding assays were carried out as described (Shields, et al. (2001) J. Biol. Chem. 276:6591-6604) with minor modifications. High protein binding 96-well plates (Corning Costar) were coated with 100 μL per well of Fcγ receptor solutions in PBS at the following concentrations: 1 μg/mL for both FcγRI (R&D Systems) and FcγRIIa (Pichia pastoris produced), 2 μg/mL for FcγRIIb (P. pastoris produced), 0.8 μg/mL for FcγRIIIa-F158, and 0.4 μg/mL for FcγRIIIa-V158 (both P. pastoris produced). All Pichia pastoris produced receptors were expressed and purified as described (Li, et al. (2006) Nature Biotechnology 24:210-215). Monomeric antibody samples added to the FcγRI plate were serially diluted in assay diluent (1×PBS, 1% BSA, and 0.05% Tween20) and 100 μL, per well was added to the plate. Antibody samples prepared for the remaining receptors require a one hour dimerization step with half molar ratio of goat anti-human IgG F(ab′)2 F(ab′)2 that is conjugated with alkaline phosphatase for detection. These dimerized F(ab′)2/antibody complexes were also serially diluted and 100 μL per well were added to the remaining receptor plates and all plates were incubated for one hour at room temperature. FcγRI bound sample antibody was detected using the same goat anti-human IgG F(ab′)2 alkaline phosphatase conjugated F(ab′)2. Sample antibody binding was quantified by measuring excitation at 340 nm and emission at 465 nm after 18 hour incubation with SuperPhos, 4-MUP Fluorescence AP Substrate Detection System (Virolabs).

The target in test [3] is T3, FcγRIIIa-F158 (Pichia pastoris produced) (UniProt P08637 17-208, limits assumed).
T3 construct: also called FcγRIIIA LF; FcgRIIIA LF
T3 sequence (P08637 17-208 limits assumed): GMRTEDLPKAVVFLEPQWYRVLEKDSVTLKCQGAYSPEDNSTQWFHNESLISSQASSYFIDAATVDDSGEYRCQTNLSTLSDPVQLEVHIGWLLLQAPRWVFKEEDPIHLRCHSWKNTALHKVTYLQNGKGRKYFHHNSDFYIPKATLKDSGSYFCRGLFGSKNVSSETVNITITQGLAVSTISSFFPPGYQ
The description is as above. On the procedure: as §2

The target in test [4] is T4, FcγRIIa (Pichia pastoris produced) (UniProt P12318 34-217, limits assumed).
T4 construct: also called CD32A
T4 sequence (looked up): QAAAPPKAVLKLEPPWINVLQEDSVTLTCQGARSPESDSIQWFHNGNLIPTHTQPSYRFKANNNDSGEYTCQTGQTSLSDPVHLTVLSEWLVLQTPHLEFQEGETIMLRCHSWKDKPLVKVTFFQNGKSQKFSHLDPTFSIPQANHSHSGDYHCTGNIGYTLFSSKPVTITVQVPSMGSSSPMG
Described as above. As to the method: as §2

For test [5], the target named is T2, FcγRIIb (Pichia pastoris produced). The test is described as above. On the procedure:
as §2
This is another data set of the same source.

In test [6] the target is T3, FcγRIIIa-F158 (Pichia pastoris produced). Described as above. On the procedure:
as §2
This is another data set of the same source.

In test [7] the target is T2, FcγRIIb (Pichia pastoris produced). The experiment in a line: fold change of the Table 12 affinities (reference row). As to the method:
as §2

The target of test [8] is T1, FcγRI (R&D Systems). The test can be described thus: ELISA-type plate assay, FcγRI coated, monomeric antibody, detected with AP-conjugated goat anti-human IgG F(ab')2, RFU readout. On the procedure:
as §1
The source holds these as a separate data set.

Test [9] has as its target T2, FcγRIIb (Pichia pastoris produced). The experiment in a line: ELISA-type plate assay, FcγR coated, antibody dimerized with AP-conjugated goat anti-human IgG F(ab')2, RFU readout. On the procedure:
as §2
This is another data set of the same source.

Test [10] concerns the target T3, FcγRIIIa-F158 (Pichia pastoris produced). The description is as above. On the procedure:
as §2
This is another data set of the same source.

In test [11] the target is T2, FcγRIIb (Pichia pastoris produced). The test can be described thus: fold change of the Table 12 affinities; Table 13 fold change computed from the Table 12 affinities. As to the method:
as §1

Test [12] deals with T5, FcγRIIIa-V158 (Pichia pastoris produced) (UniProt P08637 17-208, limits assumed).
T5 construct: also called FcγRIIIA LV; FcgRIIIA LV
T5 sequence (P08637 17-208 F176V limits assumed): as the sequence (P08637 17-208 limits assumed) above, with F160V counted along it
The experiment in a line: summary of the FcγR ELISAs; Table 8 summary: range of fold decrease over the ELISA experiments. On the procedure:
as §1

Test [13] has as its target T5, FcγRIIIa-V158 (Pichia pastoris produced). The experiment in a line: summary of the FcγR ELISAs. As to the method: as §2
In test [14] the target is T3, FcγRIIIa-F158 (Pichia pastoris produced). The test can be described thus: summary of the FcγR ELISAs. As to the method: as §2
Test [15] deals with T1, FcγRI (R&D Systems). The experiment in a line: summary of the FcγR ELISAs. As to the method:
as §2

Test [16] deals with T2, FcγRIIb (Pichia pastoris produced). The experiment in a line: FcγR affinity assay 'as described in Example 7', n = 3; printed as Affinity (nM) ± STDEV; Table 12 affinity (nM) assay, n = 3; not the dimer ELISA of Tables 3-7.

Like-named read-outs stand apart in the source and are kept apart here.

B1: 1F11 wildtype (parent) humanized anti-PCSK9 monoclonal IgG1 antibody (antibody)
heavy: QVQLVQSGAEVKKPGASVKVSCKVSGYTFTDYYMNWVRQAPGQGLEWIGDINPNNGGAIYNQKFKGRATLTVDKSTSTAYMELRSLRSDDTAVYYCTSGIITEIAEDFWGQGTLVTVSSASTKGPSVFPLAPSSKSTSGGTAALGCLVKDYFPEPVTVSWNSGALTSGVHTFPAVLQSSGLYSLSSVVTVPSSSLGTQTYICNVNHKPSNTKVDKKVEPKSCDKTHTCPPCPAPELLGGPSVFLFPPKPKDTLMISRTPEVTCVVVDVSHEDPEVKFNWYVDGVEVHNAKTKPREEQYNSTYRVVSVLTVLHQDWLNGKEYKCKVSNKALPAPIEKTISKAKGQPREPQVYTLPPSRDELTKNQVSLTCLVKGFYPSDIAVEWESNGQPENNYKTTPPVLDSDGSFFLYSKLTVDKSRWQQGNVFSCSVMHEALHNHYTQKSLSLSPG
light: DIQMTQSPSSLSASVGDRVTITCKASQNVGTNVVWYQQKPGKAPKALIHSASYRYSGVPSRFSGSGSGTDFTLTISSLQPEDFATYYCQQYKTYPYTFGQGTKVEIKRTVAAPSVFIFPPSDEQLKSGTASVVCLLNNFYPREAKVQWKVDNALQSGNSQESVTEQDSKDSTYSLSSTLTLSKADYEKHKVYACEVTHQGLSSPVTKSFNRGEC
notes: Produced in glycoengineered Pichia pastoris GFI5.0 (strain YGLY21351); also called 1F11 IgG1 GS5.0; YGLY21351
As for B1, the “EC50 (read off the curve)” value is roughly 0.08 µg/mL with FcγRI (R&D Systems) [1]; roughly 0.4 µg/mL in test [2]; roughly 0.02 µg/mL in test [3]; roughly 0.03 µg/mL in test [4]; roughly 0.2 µg/mL in [5]; roughly 0.02 µg/mL in test [6]. For the same molecule, the “EC50 (read off the curve)” value with FcγRI (R&D Systems) [8] was roughly 0.08 µg/mL; in test [9], roughly 0.4 µg/mL; in test [10], roughly 0.02 µg/mL. In addition, the “fold change in affinity vs 1F11 IgG1 GS5.0” value in [7] was 1 fold.

B2: 1F11 IgG1 F243A/V264A double mutein anti-PCSK9 antibody (antibody)
heavy: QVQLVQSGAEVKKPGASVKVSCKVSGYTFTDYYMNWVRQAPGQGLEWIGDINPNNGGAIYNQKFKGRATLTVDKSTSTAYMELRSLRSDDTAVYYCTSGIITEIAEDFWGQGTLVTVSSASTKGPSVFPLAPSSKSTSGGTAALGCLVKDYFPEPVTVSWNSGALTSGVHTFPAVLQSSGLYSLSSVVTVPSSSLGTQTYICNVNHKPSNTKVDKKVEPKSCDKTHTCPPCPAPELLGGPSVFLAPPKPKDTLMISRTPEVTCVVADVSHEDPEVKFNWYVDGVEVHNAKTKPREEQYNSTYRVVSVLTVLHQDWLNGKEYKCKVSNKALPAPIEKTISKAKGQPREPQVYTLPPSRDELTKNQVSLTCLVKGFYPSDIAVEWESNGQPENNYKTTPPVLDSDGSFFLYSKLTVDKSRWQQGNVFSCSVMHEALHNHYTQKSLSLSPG
light: B1 light
notes: sialylated N-glycans; also called 1F11 DM; YGLY23258
Turning to B2, in [11], the “fold change in affinity vs 1F11 IgG1 GS5.0” value was 3 fold. In addition, the “decreased affinity fold vs wildtype parent antibody produced in GS 5.0” value is 2 to 6 fold in [12], 2 to 6 fold in test [13], 8 to 60 fold in test [14] and 4 fold with FcγRI (R&D Systems) [15]. This molecule also had a Kd in test [16] of 1690 nM.
